Legend:
[1] = single-channel recordings at five voltages; conditions: glycan lost; control: WT Piezo1
[2] = cell-attached patch clamp, peak stretch-activated current, Piezo1-/- HEK293T; conditions: glycan lost; control: WT Piezo1-GFP
[3] = cell-attached patch clamp, split construct, Piezo1-/- HEK293T; conditions: glycan lost; control: WT split Piezo1
[4] = inactivation time constants, cell-attached patches; conditions: glycan lost; control: WT Piezo1-GFP
[5] = immunogold TEM, membrane/cytoplasm labelling ratio; conditions: glycan lost; control: WT Piezo1
[6] = Fura-2 ratiometric Ca2+ imaging, 2 µM Yoda-1; conditions: glycan lost; control: WT Piezo1
[7] = live cell anti-HA surface labelling, confocal; conditions: glycan lost; control: WT Piezo1 with extracellular HA tag

| Substance | other: unitary conductance, other: unitary conductance [1] | other: channel current [2] | further results |
| --- | --- | --- | --- |
| human Piezo1: N295Q | no change |  |  |
| human Piezo1: N1095Q | no change |  |  |
| human Piezo1: N658Q | no change | decreases |  |
| human Piezo1: N295Q and N885Q |  | decreases |  |
| human Piezo1: N658Q and N885Q |  | decreases |  |
| human Piezo1: N2294Q and N2331Q |  |  | other: channel current [3]: abolishes |
| human Piezo1: N2294Q |  | no change | other: channel inactivation kinetics [4]: no change |
| human Piezo1: N2294Q/N2331Q (CapQQ) |  | decreases | localisation_or_trafficking [5]: decreases |
| human Piezo1: N892Q | no change |  |  |
| human Piezo1: N2331Q |  | no change | other: channel inactivation kinetics [4]: no change |
| human Piezo1: N2294Q/N2331Q |  |  | other: Yoda-1-evoked Ca2+ influx [6]: abolishes; localisation_or_trafficking [7]: abolishes |
| human Piezo1: N885Q | no change | decreases |  |
